Source: the DeepSol protein solubility set

assay: soluble on expression in E. coli; label from the status in PepcDB or PDB records

Soluble on expression in E. coli, not soluble:
MKKEVTEISSYDATNLVFYVNGKRVEEKDVDPKMTLATYLRDKLKLTGTKIGCNEGGCGACTIMISHIENGEIKHFSANSCLMPVCGVFGKAVTTVEGIGSVAKNRLHPVQERLAKAHGSQCGFCTPGFVMAMYALLRNNPNPTISDINLGLQGNLCRCTGYRPILEAFYSFAVDESGTLKVTEENGCGMGENCCKVKKTACGGSDETTPGYTGGERKRKIQLSDMSDCKPYDPTQELIFPPELKLHGYESMSFAYDHHHTKWYQPVSYDDLLSLKRELPHARLISGNSELAIELKFRFIDLPAVINPRQVKVLHEKHLENDGVYMGTGMSLTDMDNYSVQLMKDLPREQTAVLKHVHEMLHWFAGIHVRNVASVAGNIATASPISDLNPIWMASNALVVLDSEARGEKRVHIDEKFFLGYRKTVIQQDEIIKAVIVPLLEENEHFAAYKQAQRREDDIAIVTGAFLVKLDPKTLVVEKIRISYGGMAPTTKLALTTMEKLIGEKWSQTFLDKALGLLSDELKLPAGVPGGMSQYRLSLALSFFFKFFLGVSKKLELTEIKYVDADVKIGQNVPETLYATQLYQEVKANQPAHDPLGRPIKHVSGDKHTTGEAVYCDDINVADCNHIAFVLSPIAHGTLNSIDYTAALEIDGVVGTIDASDVTTGAQMGHHSDTPVFVKETITFHGQPIAAIVATDHEIARKAASLVKLDYSVEKPIVTIKQALEAESFVFKHFVIHSSLNDNEQVIKSDWSKYDRIVEGSIDMGGQEHFYLETQQCIVIPHEDDELEIIISNQCVNDVQIEVAKCLGMAQHKISTKVKRIGGGFGGKESTGAILAVPASLAAKKFGRPMKFKFERFDDMAITGTRHPFTLQYKLAVDENGKFLDLDYTALSNSGHTIDLSMGVMQRAMVHADNVYKFENADITGKMCKTNLASNTAFRGFGGPQGMFGTEIMVKHVAEKFGFNHDEVRVKNFYKEGDCTPFGMHLNQCNVTRTWDECRKNSDYDNRLEEVKKFNDSNKFRKRGIYLTPTRFGIGFGLKQLNQAGALVLVYTDGSVLVSHGGMEMGQGLHTKILQIAARCLEIPIERIHIHDTSTDKVPNASATAASVGSDMNGLAVQDACRQINERLERFKKLDPNGTWDDWVKAAYVDRVSLSASGFGIIHHEPVDFFNGKGAELFGYSVYGTACCEVEIDCLTGDHHLLRTDIVMDVGESLNPAIDIGQIEGAFIQGYGLFTMEEIKIRPDGIRLTRGPGNYKIPSADDAPRHFNVSLLGNSSNKMGIFSSKAIGEPPLFLGSCAFFAIREAVRAYRIQNGNADYFVFHSPATPERIRMACEDFVTSHVPELPEEGTYTPWITSV
MSTYDTAVLDDTLVSCLSQLIGAEHIDTLTLEGRFEITRIAAALSGRPGPAPRAILMSGLQGSGKTTLARALEAAGFRRLCPDEEMFRRYGHYGRDFPRGEFRVREAPVLKDIALELQELLTAGHEVVVDHGFWTREERAQWAMTVMEAGGKPVLIYLPVPHEVRWDRIRKRNEQSLVDANSIEFSEEDLLRHAGRFSPPTDDEPHIVYDGQPDSVLADIQLSRHFDALEHHHHHH
MSLKKIMEYLQHYINQYPHRLALVFEDRHLTYGELSKEIYQASMRYKEVKLNEKVGLMDDHPVNNIINYFAVHQRGGIPCIFNHQWSNERIHQLVKSYDIQWLIKDNHLTLNHDDSIYNDEVIPRNVIHIGFTSGTTGLPKAFYRNEHSWIVSFKENEKLLQHCEETIVAPGPLSHSLSLYACIYALSTGKTFIGQKNFNPLSLMRLINQLNKATAIFVVPTMVQQLISTQRHCSSIKSILSSGAKLTLQQFQQISTLYPQANLIEFFGTSEASFISYNFNQSSPAHSVGKLFPHVETRLLNQDDDAVGLLAVRSEMVFSGYVGQSNQEGSWIKTGDFAYIKNQHLFLVGRESDRIIVGGINVYPTAIESLIMDIEGIDEALVIGIPHAKFGEIAILLYSGKVQLNYRQIKSFLMKQLSRQEVPSKLKKIDHMIYTESGKIARKEMKNKFINGEGHHHHHH

Soluble on expression in E. coli, soluble:
MGSSHHHHHHSSGLVPRGSHMKIAFVIRKDCSRCARIAESIIDLLPKDWEIIYDHEAAKFLNSKGLDISQISADVIITIGGDGTVLRTLQMAKGPVLGINMGGLGFLTELEVDEVGSAIFKLIKGQYRITESMKLKVEINGDRVEDCTNEAVVHTERIARIRQFKIYIDGHFLSTMKSDGIIVATPIGSSSYSSSAGGPLLLPTLKGMVISYLAPYSSRLKPVVVTSDSTVEIKIAGRDQECILILDGQREYTVRSGDTVRISRSENSARFLSFRESVYDRIRDKVIKHVVN
MDIRELVHLGRYAVWNAFEGKEIKVPEALKEKYSRNMGVFTTLKTYPEHNLRGCIGVPLPVYPLWYATVYSSLQAAFQDPRFYPLKKEEFDKVLWEITLLTPPEELKVPKEELPEQIEIGKHGLIIEKGEQKGLLLPQVPVEYGWSPVEFLEYTCLKAGLPKDCWKDKETKVYVFSGEVYQEKEPFGEVERVNLKLEHHHHHH
MQSNKAFNLEKQNHTPRKHHQHHHQQHHQQQQQQQQQQPPPPIPANGQQASSQNEGLTIDLKNFRKPGEKTFTQRSRLFVGNLPPDITEEEMRKLFEKYGKAGEVFIHKDKGFGFIRLETRTLAEIAKVELDNMPLRGKQLRVRFACHSASLTVRNLPQYVSNELLEEAFSVFGQVERAVVIVDDRGRPSGKGIVEFSGKPAARKALDRCSEGSFLLTTFPRPVTVEPMDQLDDEEGLPEKLVIKNQQFHKEREQPPRFAQPGSFEYEYAMRWKALIEMEKQQQDQVDRNIKEAREKLEMEMEAARHEHQVMLMRQDLMRRQEELRRMEELHNQEVQKRKQLELRQEEERRRREEEMRRQQEEMMRRQQEGFKGTFPDAREQEIRMGQMAMGGAMGINNRGAMPPAPVPPGTPAPPGPATMMPDGTLGLTPPTTERFGQAATMEGIGAIGGTPPAFNRPAPGAEFAPNKRRRY
MAHHHHHHMFRRLSVCVPFATTARFYTPSEELKKLYASDFERAQFPANIVPSDSVTFAKFLYKAVEPKGSFDTILKDFQTIAAAIPKLPVFWQRTVVVSEVSEFKSLSAPTTFTLEWMQSNGMLDLLPDVAEVYETYVNAKMKRVTAKIYVAAGKEQDRALVDKAKKVAEQVVKDNQQFAGYTLVPKVLVDRSIVEGFAVDVQGTYVNEAVGRKKETQASGEVDYTTIPPPRLSKTTWEDNIETEVLRKYLDSLSLYDAEELKSGV
MKTHQYELIDEKVFEHEFDNGLKLFIIPKPGFQKTYVTYTTQFGSLDNHFKPIGSQQFVKVPDGVAHFLEHKLFEKEDEDLFTAFAEENAQANAFTSFDRTSYLFSATSNIESNIKRLLNMVETPYFTEETVNKEKGIIAEEIKMYQEQPGYKLMFNTLRAMYSKHPIRVDIAGSVESIYEITKDDLYLCYETFYHPSNMVLFVVGDVSPQSIIKLVEKHENQRNKTYQPRIERAQIDEPREINQRFVSEKMKLQSPRLMLGFKNEPLDESATKFVQRDLEMTFFYELVFGEETEFYQQLLNKDLIDETFGYQFVLEPSYSFSIITSATQQPDLFKQLIMDELRKYKGNLKDQEAFDLLKKQFIGEFISSLNSPEYIANQYAKLYFEGVSVFDMLDIVENITLESVNETSELFLNFDQLVDSRLEMENR
MARTLFLEEGPMFFEKIAPYTYRIPRQGKMRVDAVFFASKEILKDLEAENYASLQQLMNVATLPGIVEPALAMPDIHWGYGFPIGGVAAFDPEEGGVVSPGGVGFDINCGVRLLASHLTLEDLLPRQKELADALYRLVPSGVGSERRDVRFSKRELKEILKEGAGWLVKRGYGYPEDVRFIESQGRLPWANPDKVSERAFERGAPQIGTLGSGNHFLEVQYVDEVYDEEAALAFGLFKGQVTVLIHTGSRGLGHQVCQDYVERFLKVAPRYGIELVDKQLAAAPIKSPEGQDYLQAMAAAANFAFANRQLIAHFVREAFEKVGFTPRDHGLRVLYDLAHNNAKFEEHRGRRVLVHRKGATRAFGPGHPEVPEEYRRVGQPVLVPGDMGRYSYVLAGTEKAMEVSFGSSCHGAGRKMSRHQAKKVARERNLVKELAERGILVRAATRATVDEEMPEAYKDVSLVVEAVEGAGIGKKVARLRPLIVVKG
AAGAAPVDISTLPRVKVDLVKPPFVHAHDQVAKTGPRVVEFTMTIEEKKLVIDREGTEIHAMTFNGSVPGPLMVVHENDYVELRLINPDTNTLLHNIDFHAATGALGGGALTQVNPGEETTLRFKATKPGVFVYHCAPEGMVPWHVTSGMNGAIMVLPRDGLKDEKGQPLTYDKIYYVGEQDFYVPKDEAGNYKKYETPGEAYEDAVKAMRTLTPTHIVFNGAVGALTGDHALTAAVGERVLVVHSQANRDTRPHLEGGHGDYVWATGKFRNPPDLDQETWLIPGGTAGAAFYTFRQPGVYAYVNHNLIEAFELGAAGHFKVTGEWNDDLMTSVVKPASM
